In PMC8878332, “The C-Terminal Domain of Staphylococcus aureus Zinc Transport Protein AdcA Binds Plasminogen and Factor H In Vitro” (Pathogens, 2022):

Target: T1, Human plasminogen (human)
T1 construct: human plasminogen, 92 kDa, commercial; also called PLG; purified plasminogen; source: bought: Sigma-Aldrich
Assay: ELISA; plasminogen immobilised on plate wells (1 ug in 100 uL PBS), blocked with 1% gelatin; AdcA 0-1 uM in PBS, 1.5 h at 37 C; bound AdcA detected with rabbit anti-AdcA serum; apparent KD from the fit to total binding saturation (GraphPad Prism); MntC run as control; EACA (0.1-10 mM) or NaCl (25-800 mM) added in further panels
Details: both partners purified

T1 sequence (P00747 20-810): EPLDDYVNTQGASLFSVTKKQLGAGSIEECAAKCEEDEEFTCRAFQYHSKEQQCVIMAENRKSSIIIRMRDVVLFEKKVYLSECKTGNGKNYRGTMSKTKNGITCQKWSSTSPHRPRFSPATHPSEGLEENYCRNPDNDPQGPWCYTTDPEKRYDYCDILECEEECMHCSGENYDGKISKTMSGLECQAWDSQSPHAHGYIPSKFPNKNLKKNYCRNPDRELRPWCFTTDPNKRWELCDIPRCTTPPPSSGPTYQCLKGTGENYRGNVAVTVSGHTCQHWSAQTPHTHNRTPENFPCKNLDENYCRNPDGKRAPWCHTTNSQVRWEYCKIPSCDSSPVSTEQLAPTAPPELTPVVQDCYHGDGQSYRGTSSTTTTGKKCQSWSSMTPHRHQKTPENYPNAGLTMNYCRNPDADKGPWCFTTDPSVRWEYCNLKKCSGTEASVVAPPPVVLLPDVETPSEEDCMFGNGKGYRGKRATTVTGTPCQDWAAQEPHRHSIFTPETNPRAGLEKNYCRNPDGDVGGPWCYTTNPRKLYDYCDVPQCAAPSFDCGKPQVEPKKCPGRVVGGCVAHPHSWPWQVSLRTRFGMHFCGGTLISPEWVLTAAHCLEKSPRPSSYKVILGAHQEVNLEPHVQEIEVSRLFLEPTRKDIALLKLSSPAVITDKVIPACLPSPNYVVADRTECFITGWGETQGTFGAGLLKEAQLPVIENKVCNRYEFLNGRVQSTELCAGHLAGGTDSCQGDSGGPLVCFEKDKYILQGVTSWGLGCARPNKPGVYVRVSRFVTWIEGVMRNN

B1: MntC from Staphylococcus aureus (natural protein)
chain: CGTGGKQSSDKSNGKLKVVTTNSILYDMAKNVGGDNVDIHSIVPVGQDPHEYEVKPKDIKKLTDADVILYNGLNLETGNGWFEKALEQAGKSLKDKKVIAVSKDVKPIYLNGEEGNKDKQDPHAWLSLDNGIKYVKTIQQTFIDNDKKHKADYEKQGNKYIAQLEKLNNDSKDKFNDIPKEQRAMITSEGAFKYFSKQYGITPGYIWEINTEKQGTPEQMRQAIEFVKKHKLKHLLVETSVDKKAMESLSEETKKDIFGEVYTDSIGKEGTKGDSYYKMMKSNIETVHGSMK
  Kd: 14.8 nM
